This note sets out measurements from US20250361312A1.

In this test the target is mouse OX40 receptor, cell-expressed (DO11.10-mOX40) (mouse) (UniProt P47741). Kind of test: cell-based or functional assay.
mouse OX40 receptor, cell-expressed (DO11.10-mOX40) (mouse), sequence (P47741 20-272): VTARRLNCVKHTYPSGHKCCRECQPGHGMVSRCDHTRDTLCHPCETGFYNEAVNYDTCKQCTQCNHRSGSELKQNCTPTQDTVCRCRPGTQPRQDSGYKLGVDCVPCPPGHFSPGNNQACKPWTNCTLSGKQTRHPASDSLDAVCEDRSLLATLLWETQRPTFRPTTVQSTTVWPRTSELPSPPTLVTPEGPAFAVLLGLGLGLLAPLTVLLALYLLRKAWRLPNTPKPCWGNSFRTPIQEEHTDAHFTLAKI

B1: FS20m-232-91AA/E2A (bispecific antibody, part only; not given: E2A Fab and upper Fc, human IgG1, part only)
heavy, part: GQPREPQVYTLPPSRDELFDPMYYYNQVSLTCLVKGFYPSDIAVEWESNGEPLWDYKTTPPVLDSDGSFFLYSKLTVWRDRWEDGNVFSCSVMHEALHNHYTQKSLSLSPGK
For the molecule B1, the EC50 of IL-2 release, HPAC cells present, + a-hFc was determined as 289 pM; the Max response, HPAC cells present, + a-hFc worked out at 18800 mIL-2 pg/ml; the Max response, crosslinked by EphA2 on HPAC cells, no crosslinking agent amounted to 11000 mIL-2 pg/ml.

B2: FS20m-232-91AA/R84 (bispecific antibody, part only; not given: R84 Fab and upper Fc, human IgG1, part only)
heavy, part: B1 heavy, part
Consider B2, for which the EC50 of IL-2 release, Xlink (VEGF) stood at 144 pM; the EC50 of IL-2 release, no added crosslinker was found to be 29900 pM; the Max response, Xlink (VEGF) was found to be 15100 mIL-2 pg/ml; the Max response, no added crosslinker was 16700 mIL-2 pg/ml.

B3: FS20m-232-91AA/C9B7W (bispecific antibody, part only; not given: C9B7W Fab and upper Fc, human IgG1, part only)
heavy, part: B1 heavy, part
The molecule B3 came in with an EC50 of IL-2 release, no added crosslinker (LAG3 co-expressed on T cells) of 176 pM and a Max response, no added crosslinker (LAG3 co-expressed on T cells) of 9670 mIL-2 pg/ml.

B4: G1/OX86 (antibody, from another filing, human IgG1, V domains shown)
VH: QVQLKESGPGLVQPSQTLSLTCTVSGFSLTGYNLHWVRQPPGKGLEWMGRMRYDGDIYYNSVLKSRLSISRDTSKNQVFLKMNSLQTDDTAIYYCTRDGRGDSFDYWGQGVMVTVSS
VL: DIVMTQGALPNPVPSGESASITCRSSQSLVYKDGQTYLNWFLQRPGQSPQLLTYWMSTRASGVSDRFSGSGSGTYFTLKISRVRAEDAGVYYCQQVREYPFTFGSGTKLEIKR
Take B4: the EC50 of IL-2 release, HPAC cells present, + a-hFc is 811 pM; the EC50 of IL-2 release, Xlink (anti-hFc) was found to be 15600 pM; the Max response, HPAC cells present, + a-hFc amounted to 17900 mIL-2 pg/ml; the Max response, Xlink (anti-hFc) turned out to be 16200 mIL-2 pg/ml.
